Test [1] concerns the target T1, H-NS (Escherichia coli, UniProt P0ACF8).
T1 chain: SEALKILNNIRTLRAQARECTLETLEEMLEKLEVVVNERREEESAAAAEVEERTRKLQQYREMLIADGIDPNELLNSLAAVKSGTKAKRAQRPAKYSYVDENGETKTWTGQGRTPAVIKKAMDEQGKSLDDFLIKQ
Nature of the test: fluorescence anisotropy. In general terms: Polarisation of emitted light reports the rotation of a fluorescent probe.

The target of test [2] is Cnu (E. coli). Kind of test: other fluorescence titration; ~2 uM Cnu with ~30 nM to ~140 uM H-NS; W67 emission on excitation at 295 nm, intensity-averaged wavenumber; Hill fit; apparent; 500 mM ionic strength, sodium phosphate pH 8.0; temperatures from 5 to 37 °C.
In test [3] the target is Cnu (E. coli). Nature of the test: other fluorescence titration; ~2 uM Cnu with ~30 nM to ~140 uM H-NS; W67 emission on excitation at 295 nm, intensity-averaged wavenumber; Hill fit; apparent; 170 mM ionic strength, sodium phosphate pH 8.0; temperatures from 5 to 37 °C.
Test [4] deals with H-NSW, variant of H-NS with a tryptophan at its C-terminus (E. coli) (UniProt P0ACF8). Kind of test: fluorescence polarisation; steady-state tryptophan anisotropy; 2 uM H-NSW with ~30 nM to ~140 uM H-NS (tyrosine variant); excitation 295 nm; 170 mM ionic strength, 5 °C and 37 °C; apparent; fit to monomer-dimer (1:1) equilibrium.

B1: Cnu (protein)
chain: MTVQDYLLKFRKISSLESLEKLYDHLNYTLTDDQELINMYRAADHRRAELVSGGRLFDLGQVPKSVWHYVQ
As to B1, the Kd in test [1] was approximately 125 µM.

B2: H-NS (residues 1-59 of the N-terminal domain), the tyrosine variant (domain or fragment)
chain: MSEALKILNNIRTLRAQARESTLETLEEMLEKLEVVVNERREEESAAAAEVEERTRKLY
As for B2, the K1/2 in test [2] worked out at 100 µM. In addition, in test [3], the fold increase in affinity against 500 mM IS was determined as 4 fold. Besides, in test [4], the Kd lay in the range of 100 to 150 µM and the minimum oligomerization concentration came out at 10 µM.

Values taken from paper PMC6491433 (2019).
